Experiment in all cases: Kinase Profiling Assay
What all share (format): biochemical
Holding throughout (conditions): peptide 100 μM

One test addresses T1, DDR2(h) (Homo sapiens, UniProt Q16832).
T1 sequence (Q16832 22-855): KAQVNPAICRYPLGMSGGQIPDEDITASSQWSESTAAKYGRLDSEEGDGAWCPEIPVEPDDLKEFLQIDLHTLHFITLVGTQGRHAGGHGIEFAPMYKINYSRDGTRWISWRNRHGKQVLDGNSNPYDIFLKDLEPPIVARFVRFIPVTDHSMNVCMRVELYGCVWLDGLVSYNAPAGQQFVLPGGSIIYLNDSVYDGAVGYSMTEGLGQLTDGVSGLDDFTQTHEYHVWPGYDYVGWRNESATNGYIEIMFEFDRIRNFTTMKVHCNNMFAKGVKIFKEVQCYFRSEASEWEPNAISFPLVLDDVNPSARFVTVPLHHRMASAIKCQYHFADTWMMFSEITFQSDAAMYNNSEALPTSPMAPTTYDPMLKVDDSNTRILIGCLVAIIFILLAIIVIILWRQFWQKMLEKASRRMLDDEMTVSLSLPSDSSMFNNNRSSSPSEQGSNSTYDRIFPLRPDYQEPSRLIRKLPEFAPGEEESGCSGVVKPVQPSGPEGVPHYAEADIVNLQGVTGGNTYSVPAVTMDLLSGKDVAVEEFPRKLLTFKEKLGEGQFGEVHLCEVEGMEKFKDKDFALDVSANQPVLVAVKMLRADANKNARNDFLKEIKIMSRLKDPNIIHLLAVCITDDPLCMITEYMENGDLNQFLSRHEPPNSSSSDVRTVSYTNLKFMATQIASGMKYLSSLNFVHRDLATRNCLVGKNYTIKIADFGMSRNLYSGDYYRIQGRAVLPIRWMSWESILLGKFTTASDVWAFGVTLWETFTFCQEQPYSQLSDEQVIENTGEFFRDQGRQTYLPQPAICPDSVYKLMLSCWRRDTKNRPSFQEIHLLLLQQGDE
Put shortly: (§1)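 Each kinase activity was measured in duplicate. Phosphorylation of a positively charged substrate with radiolabeled phosphate from ATP was captured on a negatively charged filter, counted by scintillation and expressed relative to a 100% activity control. MK2 inhibitory peptides were screened for specificity across 266 human kinases.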

The next test addresses EphA2(h) (Homo sapiens, UniProt P29317). A digest of the protocol: as §1
The next test deals with EphA5(h) (Homo sapiens, UniProt P54756). Put shortly: as §1
The target in a further test is PDGFRα(h) (Homo sapiens, UniProt P16234). A digest of the protocol:
as §1

The target of the next test is Pim-1(h) (Homo sapiens, UniProt P11309). A digest of the protocol:
as §1

For another test, the target named is ROCK-I(h) (Homo sapiens, UniProt Q13464). Put shortly: as §1
The target in the next test is T2, SGK3(h) (Homo sapiens, UniProt Q96BR1).
T2 construct: purchased Millipore
T2 sequence (Q96BR1 1-496): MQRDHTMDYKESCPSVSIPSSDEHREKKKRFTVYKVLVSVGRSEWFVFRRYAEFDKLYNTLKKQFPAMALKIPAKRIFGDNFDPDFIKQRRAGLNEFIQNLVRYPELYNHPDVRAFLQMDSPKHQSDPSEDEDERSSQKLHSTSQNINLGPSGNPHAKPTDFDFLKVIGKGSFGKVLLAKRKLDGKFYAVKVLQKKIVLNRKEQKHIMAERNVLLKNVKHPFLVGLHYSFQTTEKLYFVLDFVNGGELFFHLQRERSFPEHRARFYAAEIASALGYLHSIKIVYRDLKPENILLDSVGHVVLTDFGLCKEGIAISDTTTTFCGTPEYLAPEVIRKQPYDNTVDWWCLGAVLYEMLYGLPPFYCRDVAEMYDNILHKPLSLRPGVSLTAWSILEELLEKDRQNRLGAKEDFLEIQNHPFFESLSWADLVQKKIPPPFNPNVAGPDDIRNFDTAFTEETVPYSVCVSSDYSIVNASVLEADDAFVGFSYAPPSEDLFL
Put shortly: as §1

The target of another test is T3, Txk(h) (Homo sapiens, UniProt P42681).
T3 sequence (P42681 1-527): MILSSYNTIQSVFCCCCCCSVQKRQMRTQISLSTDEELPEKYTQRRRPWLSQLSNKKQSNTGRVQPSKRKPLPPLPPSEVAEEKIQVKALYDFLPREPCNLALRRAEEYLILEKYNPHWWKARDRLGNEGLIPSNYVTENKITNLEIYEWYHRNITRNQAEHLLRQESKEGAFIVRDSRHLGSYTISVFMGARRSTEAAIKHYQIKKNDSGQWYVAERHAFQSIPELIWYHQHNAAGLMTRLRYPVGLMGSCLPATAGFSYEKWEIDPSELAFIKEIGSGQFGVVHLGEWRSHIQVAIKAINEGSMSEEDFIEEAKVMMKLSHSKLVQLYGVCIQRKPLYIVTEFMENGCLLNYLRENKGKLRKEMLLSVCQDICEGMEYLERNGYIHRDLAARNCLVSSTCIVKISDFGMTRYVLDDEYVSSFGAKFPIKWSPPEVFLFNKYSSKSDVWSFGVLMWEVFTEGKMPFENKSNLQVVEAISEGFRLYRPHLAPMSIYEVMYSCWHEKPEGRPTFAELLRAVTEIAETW
Put shortly:
as §1

A further test deals with cKit(D816V)(h) (Homo sapiens, UniProt P10721, D816V). Put shortly: as §1
A further test deals with cKit(V560G)(h) (Homo sapiens, UniProt P10721, V560G). Put shortly:
as §1

No end group written: not given here.

Chain of ROCK-I(h) (Q13464 whole entry): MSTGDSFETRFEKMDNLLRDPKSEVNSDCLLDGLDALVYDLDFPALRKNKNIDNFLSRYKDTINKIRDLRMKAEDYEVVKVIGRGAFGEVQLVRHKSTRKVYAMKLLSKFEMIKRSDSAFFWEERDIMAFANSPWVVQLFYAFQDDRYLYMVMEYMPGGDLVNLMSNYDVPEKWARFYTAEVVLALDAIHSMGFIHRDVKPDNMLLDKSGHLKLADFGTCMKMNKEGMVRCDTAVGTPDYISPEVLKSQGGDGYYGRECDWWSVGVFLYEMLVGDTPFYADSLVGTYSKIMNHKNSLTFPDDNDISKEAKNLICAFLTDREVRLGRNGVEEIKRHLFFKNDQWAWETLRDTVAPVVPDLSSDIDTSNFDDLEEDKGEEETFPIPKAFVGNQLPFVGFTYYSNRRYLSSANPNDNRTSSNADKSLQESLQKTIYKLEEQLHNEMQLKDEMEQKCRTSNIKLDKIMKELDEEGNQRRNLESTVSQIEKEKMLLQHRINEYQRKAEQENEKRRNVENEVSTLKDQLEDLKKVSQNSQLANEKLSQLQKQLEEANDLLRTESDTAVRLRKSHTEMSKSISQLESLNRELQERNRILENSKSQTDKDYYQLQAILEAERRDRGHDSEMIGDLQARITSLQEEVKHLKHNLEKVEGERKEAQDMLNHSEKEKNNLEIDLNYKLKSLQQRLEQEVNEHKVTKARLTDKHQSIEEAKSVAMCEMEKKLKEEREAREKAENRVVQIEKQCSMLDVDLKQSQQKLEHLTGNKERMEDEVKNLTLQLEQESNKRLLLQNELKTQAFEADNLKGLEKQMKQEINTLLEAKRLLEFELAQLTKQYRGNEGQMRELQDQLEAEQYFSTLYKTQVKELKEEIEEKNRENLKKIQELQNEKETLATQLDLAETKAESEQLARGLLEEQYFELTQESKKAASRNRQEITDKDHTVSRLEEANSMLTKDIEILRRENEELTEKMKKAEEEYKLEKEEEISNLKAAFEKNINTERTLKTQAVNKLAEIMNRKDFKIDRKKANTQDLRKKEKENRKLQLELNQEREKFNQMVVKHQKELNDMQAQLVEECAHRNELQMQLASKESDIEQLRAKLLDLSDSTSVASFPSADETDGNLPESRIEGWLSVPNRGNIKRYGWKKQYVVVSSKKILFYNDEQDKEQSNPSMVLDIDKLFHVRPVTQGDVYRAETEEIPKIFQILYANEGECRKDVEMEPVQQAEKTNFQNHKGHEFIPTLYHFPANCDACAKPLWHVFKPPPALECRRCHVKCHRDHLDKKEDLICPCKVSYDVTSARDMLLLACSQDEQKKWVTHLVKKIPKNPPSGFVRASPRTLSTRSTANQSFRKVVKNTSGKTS
Chain of EphA5(h) (P54756 25-1037): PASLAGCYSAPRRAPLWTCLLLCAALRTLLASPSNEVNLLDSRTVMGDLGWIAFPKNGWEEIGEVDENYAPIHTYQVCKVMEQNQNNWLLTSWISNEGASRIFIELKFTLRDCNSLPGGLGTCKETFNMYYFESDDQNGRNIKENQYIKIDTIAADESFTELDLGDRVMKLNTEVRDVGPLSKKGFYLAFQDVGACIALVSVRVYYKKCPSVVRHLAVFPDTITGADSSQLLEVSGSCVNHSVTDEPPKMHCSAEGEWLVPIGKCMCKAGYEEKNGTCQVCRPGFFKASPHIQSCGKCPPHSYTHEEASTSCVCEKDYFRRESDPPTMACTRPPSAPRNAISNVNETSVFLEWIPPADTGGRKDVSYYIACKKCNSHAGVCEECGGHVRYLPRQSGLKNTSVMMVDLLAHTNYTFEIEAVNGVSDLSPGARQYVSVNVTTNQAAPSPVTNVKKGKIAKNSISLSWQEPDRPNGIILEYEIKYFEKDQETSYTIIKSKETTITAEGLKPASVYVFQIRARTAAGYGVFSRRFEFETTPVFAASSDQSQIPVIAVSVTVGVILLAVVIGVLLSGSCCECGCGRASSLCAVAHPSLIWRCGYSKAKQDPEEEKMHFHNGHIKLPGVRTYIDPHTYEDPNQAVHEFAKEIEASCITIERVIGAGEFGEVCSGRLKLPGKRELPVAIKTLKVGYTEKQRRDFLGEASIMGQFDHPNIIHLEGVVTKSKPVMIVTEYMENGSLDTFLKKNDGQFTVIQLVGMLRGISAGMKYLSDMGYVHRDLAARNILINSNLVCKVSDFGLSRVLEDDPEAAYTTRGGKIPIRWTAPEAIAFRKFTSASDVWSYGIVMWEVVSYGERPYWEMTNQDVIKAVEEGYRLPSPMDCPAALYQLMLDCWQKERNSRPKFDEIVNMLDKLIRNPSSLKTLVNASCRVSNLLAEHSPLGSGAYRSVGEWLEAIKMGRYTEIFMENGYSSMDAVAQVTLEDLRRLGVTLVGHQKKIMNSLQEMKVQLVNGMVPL
Chain of Pim-1(h) (P11309 whole entry): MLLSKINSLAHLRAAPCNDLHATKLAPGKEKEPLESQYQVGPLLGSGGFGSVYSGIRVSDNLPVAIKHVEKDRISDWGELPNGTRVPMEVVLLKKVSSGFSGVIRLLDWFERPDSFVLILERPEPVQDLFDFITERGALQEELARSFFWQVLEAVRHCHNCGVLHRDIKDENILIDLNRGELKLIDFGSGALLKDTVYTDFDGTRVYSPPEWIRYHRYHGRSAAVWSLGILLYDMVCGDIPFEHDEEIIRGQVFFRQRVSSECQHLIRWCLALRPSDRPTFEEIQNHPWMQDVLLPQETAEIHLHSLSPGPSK
Chain of PDGFRα(h) (P16234 24-1089): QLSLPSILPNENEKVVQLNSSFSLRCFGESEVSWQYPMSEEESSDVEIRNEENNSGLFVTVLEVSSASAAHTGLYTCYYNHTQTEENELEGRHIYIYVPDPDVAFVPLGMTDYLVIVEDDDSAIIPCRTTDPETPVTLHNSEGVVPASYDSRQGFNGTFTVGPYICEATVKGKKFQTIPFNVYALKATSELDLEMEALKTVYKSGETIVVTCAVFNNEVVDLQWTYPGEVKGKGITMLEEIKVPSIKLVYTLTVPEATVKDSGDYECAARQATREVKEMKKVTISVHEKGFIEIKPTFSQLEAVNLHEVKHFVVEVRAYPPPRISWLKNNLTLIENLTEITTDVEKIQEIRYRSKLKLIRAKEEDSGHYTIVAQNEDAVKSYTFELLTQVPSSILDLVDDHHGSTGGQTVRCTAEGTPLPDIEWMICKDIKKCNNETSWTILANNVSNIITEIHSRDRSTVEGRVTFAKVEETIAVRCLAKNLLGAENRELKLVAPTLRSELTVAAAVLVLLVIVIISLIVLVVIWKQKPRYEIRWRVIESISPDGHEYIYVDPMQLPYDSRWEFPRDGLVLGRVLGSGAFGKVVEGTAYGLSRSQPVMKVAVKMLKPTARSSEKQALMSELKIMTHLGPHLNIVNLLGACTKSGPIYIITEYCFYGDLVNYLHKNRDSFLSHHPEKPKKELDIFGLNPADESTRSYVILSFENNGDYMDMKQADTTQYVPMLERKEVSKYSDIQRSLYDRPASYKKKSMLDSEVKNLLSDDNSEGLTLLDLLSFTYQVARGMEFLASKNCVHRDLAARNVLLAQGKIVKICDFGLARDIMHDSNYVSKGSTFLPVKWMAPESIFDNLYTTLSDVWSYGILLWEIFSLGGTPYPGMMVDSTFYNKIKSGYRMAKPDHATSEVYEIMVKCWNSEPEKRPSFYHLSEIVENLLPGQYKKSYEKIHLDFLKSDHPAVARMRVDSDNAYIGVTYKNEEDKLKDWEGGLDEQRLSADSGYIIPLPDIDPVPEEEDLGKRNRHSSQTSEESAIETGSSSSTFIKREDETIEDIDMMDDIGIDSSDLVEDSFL

Regarding FAKLAARLYRKALARQLGVAA [MMI-0300], the “% activity” value in the test with DDR2(h) turned out to be 94%; in the test with EphA2(h) it was 31%; with EphA5(h), 18%; in the test with PDGFRα(h) it was 65%; with Pim-1(h), 8%; with ROCK-I(h), 79%. For the same sequence, the entries for the “% activity” value with SGK3(h), with Txk(h) and with cKit(D816V)(h) were 10%, 48% and 60%, respectively.

“HRRIKAWLKKIKALARQLGVAA (Mammal) [MMI-0500]”: the “% activity” value in the test with DDR2(h) is given as 79%; in the test with EphA5(h), 42%; with PDGFRα(h), 40%; with Pim-1(h), 0%; with ROCK-I(h), 17%; in the test with SGK3(h), -3%. Also, the entries for the “% activity” value with Txk(h), with cKit(D816V)(h) and with cKit(V560G)(h) were 10%, 30% and 198%, respectively.

In the case of KAFAKLAARLYRKALARQLGVAA [MMI-0400], the “% activity” value is given as 95% with DDR2(h); 17% with EphA2(h); 24% with EphA5(h); 40% with PDGFRα(h); 7% in the test with Pim-1(h); 73% with ROCK-I(h). Besides, the “% activity” value with SGK3(h) came to 8%; with Txk(h) it was 37%; with cKit(D816V)(h), 35%; with cKit(V560G)(h), 124%.

On to YARAAARQARAKALARQLGVAA [MMI-0100], for which the “% activity” value at EphA5(h) is recorded as 110%; at SGK3(h), 95%; at Txk(h), 87%; on cKit(V560G)(h), 94%.

Consider “YARAAARQARAKALNRQLGVA (Mammal) [MMI-0200]”, for which the “% activity” value with EphA2(h) is 95%; with EphA5(h) it was 123%; with PDGFRα(h) it was 108%; with Pim-1(h), 18%; in the test with SGK3(h), 58%; with Txk(h) it was 98%. Further, in the test with cKit(D816V)(h), the “% activity” value was 118%.
